Source: US20250115640A1, “NEUROPROTECTIVE POLYPEPTIDE COMPOUND AND APPLICATION THEREOF” (Innerse (Zhuhai) Pharmaceutical Co., Ltd., priority 2021, published 2025)
Values joined by “and” are separate entries in the source; they are usually repeats but may differ in a detail not shown here. Equal values may be shown once.

Tests used:
Format in all cases: in vivo, Sprague-Dawley (SD) rats
[1] = Body weight of MCAO model animals (Example 6); conditions: individual animal
Procedure: • Animals measured: all the surviving experimental animals planned to be measured; • Measurement time: the body weight was measured at least twice during the adaptation period, once 24 hours before surgery for grouping, and once 24 hours after surgery.
Cerebral ischemia-reperfusion is an acute injury model, wherein the weight of experimental animals will drop dramatically after MCAO modeling. Thus, the weight of experimental animals is one of the most basic sensitive parameters to comprehensively reflect the health status of animals. In this experiment, the body weight of all the animals was monitored on the day before the surgery and on the first day after the surgery, and the changes of animal's body weight were observed and recorded.

[2] = system: MCAO ischemia-reperfusion model; experiment: MCAO ischemia-reperfusion model, rat Neurological Severity Scores (NSS) (Example 6)
From the text: 3) Cerebral ischemia reperfusion surgery: • A. Isolating and exposing blood vessels: the skin of the surgical area was shaved, and the rats were placed under a surgical microscope. The skin of the rat was cut along the midline with ophthalmic scissors, with a cut of about 2 cm length. Through the right neck of the rat, the muscle tissue of the right neck was bluntly isolated and opened with a microforcep to expose the right common carotid artery (CCA), and then isolated upward along the common carotid artery to further expose the external carotid artery (ECA) and internal carotid artery (ICA); • B. The proximal end of CCA was ligated and the CCA at the Y-shaped branch was temporarily clamped; the ligated site of CCA to the clamped site of ICA were threaded, tied with a loose knot (pre-ligation) for later use, and a small incision at the proximal end of the pre-ligation was made; • C. Inserting the suture emboli: Suture emboli No. 4-0 was inserted through the incision of CCA, pushed slowly and gently into the internal carotid artery, and stopped temporarily at the artery clamp of ICA. The pre-ligation thread was tied tightly (to avoid severe bleeding when pushing the suture emboli), then the artery clamp that blocked the blood flow of ICA was removed, and the suture emboli was immediately pushed into ICA until entering into the cranium. One should be careful not to insert the suture emboli into the pterygopalatine artery, which is another branch of the internal carotid artery and is one of the extra-cranial branches of ICA. […] Then the insertion was terminated and the time was recorded. […] Note: The first digit of the animal number represents the group (1, 2, 3 and 4 represent the model control group, S3 group, t-PA group and S3+t-PA group respectively), and the second letter represents the gender (M is male), the last three digits represent the animal serial number. a means giving 3 mL S3 and 3 mL sterile water for injection, b means giving 3 mL t-PA and 3 mL sterile water for injection, c means giving 3 mL S3 and 3 mL t-PA. • Route of administration: tail vein injection; • Administration time: immediately after ischemia-reperfusion (within 5 minutes); • Dosing frequency and cycle: 1 dose; • The day of modeling was defined as D0, and the day before was defined as D-1. • Measurement time: 24 hours before the modeling, 24 and 72 hours after the modeling; • Animals measured: all the surviving animals planned to be measured; • Measurement method: a motor function test, sensory test, balance test, and reflex and abnormal behavior test were performed on animals, according to the rat for details. […]

[3] = system: MCAO ischemia-reperfusion model; experiment: MCAO ischemia-reperfusion model, TTC staining, cerebral infarct area and inhibition rate (Example 6)
[4] = 3 mg/kg i.v. immediately after reperfusion, 24 h after surgery, group mean ± SD

B1: t-PA: recombinant human TNK tissue-type plasminogen activator for injection (Mingfule) purchased from Guangzhou Mingkang Bioengineering Co., Ltd. (protein, UniProt P00750 36-562, looked up, variant T103N N117Q K296A H297A R298A R299A)
Tissue-type plasminogen …: SYQVICRDEKTQMIYQQHQSWLRPVLRSNRVEYCWCNSGRAQCHSVPVKSCSEPRCFNGGTCQQALYFSDFVCQCPEGFAGKCCEIDTRATCYEDQGISYRGNWSTAESGAECTNWQSSALAQKPYSGRRPDAIRLGLGNHNYCRNPDRDSKPWCYVFKAGKYSSEFCSTPACSEGNSDCYFGNGSAYRGTHSLTESGASCLPWNSMILIGKVYTAQNPSAQALGLGKHNYCRNPDGDAKPWCHVLKNRRLTWEYCDVPSCSTCGLRQYSQPQFRIKGGLFADIASHPWQAAIFAAAAASPGERFLCGGILISSCWILSAAHCFQERFPPHHLTVILGRTYRVVPGEEEQKFEVEKYIVHKEFDDDTYDNDIALLQLKSDSSRCAQESSVVRTVCLPPADLQLPDWTECELSGYGKHEALSPFYSERLKEAHVRLYPSSRCTSQHLLNRTVTDNMLCAGDTRSGGPQANLHDACQGDSGGPLVCLNDGRMTLVGIISWGLGCGQKDVPGVYTKVTNYLDWIRDNMRP
modifications: tenecteplase (TNK-tPA), Mingfule
In the case of B1, the “Body weight D 2, individual animals” value ([1]; after surgery and administration) is reported as 230.57 g and 203.58 g and 203.63 g and 199.35 g and 205.31 g and 223.28 g and 223.30 g and 217.60 g and 200.68 g, the “Body weight D 0, individual animals” value ([1]; before surgery (baseline)) is reported as 289.15 g and 246.68 g and 263.91 g and 259.23 g and 273.31 g and 281.77 g and 281.59 g and 273.94 g and 251.02 g and the “NSS D2, individual animals” value ([2]; 3 mg/kg i.v. immediately after reperfusion, after surgery, individual animal) is reported as 7 (2×) and 8 and 7.5 (2×) and 6.5 (2×) and 6 and 5.5. For the same molecule, the “NSS D 2” value ([2]; 3 mg/kg i.v. immediately after reperfusion, one day after surgery, group mean ± SD) was 6.83±0.75, the NSS reduction rate ([2]; one day after surgery, relative to model control group, group mean ± SD) was 11.83±9.62% and the “NSS reduction rate, individual animals” value ([2]; relative to model control group, individual animal) was 9.68% (2×) and −3.23% and 3.23% (2×) and 16.13% (2×) and 22.58% and 29.03%. The “Infarct area, individual animals” value ([3]; 3 mg/kg i.v. immediately after reperfusion, 24 h after modeling, individual animal) was 19.069% and 18.394% and 16.546% and 21.064% and 19.195% and 18.719% and 16.209% and 18.356% and 19.147%, the Infarct area weight [3, 4] was 0.26 ± 0.022 g and the infarct area [3, 4] was 18.522±1.372%. The “Cerebral infarct inhibition rate” value ([3]; 3 mg/kg i.v. immediately after reperfusion, 24 h after surgery, vs model control, group mean ± SD) was 22.802±5.719%, the “Weight of infarct area, individual animals” value ([3]; 24 h after modeling, individual animal) was 0.291 g and 0.268 g and 0.229 g and 0.289 g and 0.272 g and 0.260 g and 0.230 g and 0.239 g and 0.265 g and the “Cerebral infarct inhibition rate, individual animals” value ([3]; vs model control group, individual animal) was 20.521% and 23.336% and 31.037% and 12.207% and 19.996% and 21.984% and 32.445% and 23.493% and 20.196%.
